Key:
human GITR-His (human) [1] = target: human GITR-His (human) (UniProt Q9Y5U5); assay: ForteBio BLI, antibody on AHQ tip, human GITR-His 100 nM in solution, 1:1 model
[2] = target: human GITR overexpressed on CHO cells (CHO-GITR) (human) (UniProt Q9Y5U5); assay: flow cytometry on CHO-GITR cells, PE anti-human Fc detection, MFI; direct binding titration, the table row is labelled IC50, nM is taken from the concentration axis
[3] = target: GITR protein overexpressed on Hela cells (Hela-GITR-NF-κB-Luc-Rep); assay: cell-based or functional assay
human GITR-His (human) [4] = target: human GITR-His (human) (UniProt Q9Y5U5); assay: ForteBio BLI, antibody on AHQ tip, human GITR-His 100 nM in solution
human GITR-His (human) [5] = target: human GITR-His (human) (UniProt Q9Y5U5); assay: as above; remark: listed apart in the source

Sequence of human GITR-His (human) (Q9Y5U5 other isoform, or with tags, fused parts or gaps): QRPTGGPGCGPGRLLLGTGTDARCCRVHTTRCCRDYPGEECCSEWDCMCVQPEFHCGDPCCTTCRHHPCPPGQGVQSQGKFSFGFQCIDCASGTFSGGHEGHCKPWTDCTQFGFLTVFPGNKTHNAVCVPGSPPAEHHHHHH
Sequence of human GITR overexpressed on CHO cells (CHO-GITR) (human) (Q9Y5U5 26-241): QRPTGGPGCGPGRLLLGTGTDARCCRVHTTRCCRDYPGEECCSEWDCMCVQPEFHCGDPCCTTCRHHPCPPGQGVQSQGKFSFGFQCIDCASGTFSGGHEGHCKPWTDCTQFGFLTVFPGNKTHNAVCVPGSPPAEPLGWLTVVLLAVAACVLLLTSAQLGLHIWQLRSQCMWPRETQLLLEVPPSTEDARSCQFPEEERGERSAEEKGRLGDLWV

## TRX518 (antibody)
Human GITR-His (human) [1]
  Kd: 26.2 nM
  koff: 0.00484 s⁻¹
  kon: 185000 M⁻¹ s⁻¹
[2]
  EC50 for binding: 0.242 nM
[3]
  EC50 for the activation (NF-κB luciferase reporter): 2.1 nM
Human GITR-His (human) [4]
  Kd: 9.62 nM
  koff: 0.00206 s⁻¹
  kon: 214000 M⁻¹ s⁻¹
Human GITR-His (human) [5]
  Kd: 8.53 nM
  koff: 0.00292 s⁻¹
  kon: 342000 M⁻¹ s⁻¹

From US20220267458A1
